Reference: the nanobody polyreactivity screen of Harvey et al. (2022)

Assay: yeast display, Sf9 membrane polyspecificity reagent, FACS + sequencing; frameworks hold sequencing errors
Outline: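 Using colony PCR, genes from sorted yeast display clones were amplified, then sequenced on MiSeq at 2 × 250 and filtered by CDR length. The clones had been stained with 10% biotinylated, detergent-solubilized Sf9 membrane reagent for 1 hour at 4 °C and sorted by FACS into low and high (top ~1%) gates on anti-HA and streptavidin fluorescence. Polyreactivity labels come from the gate of origin.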

Row | Sequence | polyreactivity (PSR sort gate)
1 | QVQLVESGGGLVQAGGSLRLSCAASGRIFGSYAMGWYRQAPGKERELVAAISGGGSTNYADSVKGRFTISRDNAKNTVYLQMNSLKPEDSAVYYCTADRGFAVIVLYGYWGQGTQVTVSS | low polyreactivity
2 | QVQLVESGGGLVQAGGSLRLSCAASGRIFGSYAMGWYRQAPGKERELVAAISRSGVSTYYADSVKGRFTISRDNAKNTVYLQMNSLKPEDTAVYYCAAYYRYASDYWGQGTQVTVSS | low polyreactivity
3 | QVQLVESGGGLVQAGGSLRLSCAASGRIFGSYAMGWYRQAPGKERELVAAISWRGTSTYYADSVKGRFTISRDNAKNTVYLQMNSLIPEDTAVYYCAARGLWPYDYWGQGSQVTVSS | low polyreactivity
4 | QVQLVESGGGLVQAGGSLRLSCAASGRIFGSYAMGWYRQAPGKERELVATIRRSGGRTYYADSVKGRFTISRDNAKNTVYLQKTSLKPADTAVYYCAKDEWGNIRHERDYWGQGTQVTVSS | low polyreactivity
5 | QVQLVESGGGLVQAGGSLRLSCAASGRIFGSYAMGWYRQAPGKERELVATITFGGGSTYYAESEKGRFTISRDNAKNTVYLQMNSLKPEDTAVYYCAADSGYLGIYGDEYSWGQGTQVTVSS | low polyreactivity
6 | QVQLVESGGGLVQAGGSLRLSCAASGRIFGSYTMGWYRQAPGKERELVAAISWSGGNTYYADSVKGRFTISRDNAKNTVYLLMNSQKPEDTAVYYCNALYYRPPKWYGYWGQGTQVTVSS | high polyreactivity
7 | QVQLVESGGGLVQAGGSLRLSCAASGRIFGTNAMGWYIQAPGKERELVADITSGGSTNYADSVKGRFTISRDNAKNTVYLQMNSLKPEDTAVYYCAADVIGDLRWYRDEYWGQGTQVTVSS | low polyreactivity
8 | QVQLVESGGGLVQAGGSLRLSCAASGRIFGTNAMGWYRQAHGKERELVADITSGGSTNYADSVKGRFTISRDNAKNTVYLQMNSLKPEDTAVSYCAADVIGDLPWYRDEYWGQGTQVTVSS | low polyreactivity
9 | QVQLVESGGGLVQAGGSLRLSCAASGRIFGTYAMGWYRQAPGKERELVASISYSDGSTYADSVKGRFTISRDNAKNTVYLQMNSLKPEDTAVYYCAADVYYYAQSEDGYWGQGTQVTVSS | low polyreactivity
10 | QVQLVESGGGLVQAGGSLRLSCAASGRIFGVNAMGLYRQAPGKERELVAVISSGGSTYYADSVKGRFTISRDNAKNTVYLQMNSLKPEDTAVYYCNAVVGRWFPYNLSDYWGQGTQVTVSS | low polyreactivity
11 | QVQLVESGGGLVQAGGSLRLSCAASGRIFGVYAMGRYRQAPGKERELVAGINGGDSTYYADSVKGRFTISRDNAKNTVYLQMNSLKAEDTAVYYCAAEADESGSNYDYWGQGTQVTVSS | low polyreactivity
12 | QVQLVESGGGLVQAGGSLRLSCAASGRIFGVYAMGWYRQAPGKEREFVARISWHGGRTYYADSVKGRFTISRDNAKNTVYLQMNSLKPEDTAVYYCAADHGYPSRLDYWGQGTQVTVSS | high polyreactivity
13 | QVQLVESGGGLVQAGGSLRLSCAASGRIFGVYAMGWYRQAPGKERELVAAIDSSDASTYYADSVKGRFTISRDNAKNTVYLQMNSLKPEDTAVYYCAADNPAAVYGYDYWGQGTQVTVSS | low polyreactivity
14 | QVQLVESGGGLVQAGGSLRLSCAASGRIFGVYAMGWYRQAPGKERELVAAIDSSDGSTYYADSVKGRFTISRDNAKNTVYLQMNSLKPEDTAVYYCAADTPAAVYGYDYWGQGTQVTVSS | low polyreactivity
15 | QVQLVESGGGLVQAGGSLRLSCAASGRIFGVYAMGWYRQAPGKERELVAAISFSGGRTYYADSVKGRFTISRDNAKNTVYLQMNSLKPEDTAVYYCAVRGYYSFLYSTAYDYWGQGTQVTVSS | low polyreactivity
16 | QVQLVESGGGLVQAGGSLRLSCAASGRIFGVYAMGWYRQAPGKERELVAAISTRGGSTYYADSVKGRFTISRDNAKNTVYLQMNSLKPEDTAVYYCAAKSNNIATMDYWGQGTQVTVSS | low polyreactivity
17 | QVQLVESGGGLVQAGGSLRLSCAASGRIFGVYGMGWYRQAPGKERELVAAISWSGATTYYADSVKGRFTISRDNAKNTVYLQMNSLKPEDTEVYYCAADFGWFYDGLAVWFIRILGVYWGQGTQVTVSS | low polyreactivity
18 | QVQLVESGGGLVQAGGSLRLSCAASGRIFGVYVMGWYRQAPGKERELVAAISWSGSHTYYADSVKGRFTISRDNAKNTVYLQMNSLKPEDTAVYYCNADSYPDYTGPGLDWYDYWGQGTQVTVSS | low polyreactivity
19 | QVQLVESGGGLVQAGGSLRLSCAASGRIFGWYAMGWYRQAPGKERELVAAINWDGTSTDYADSVKGRFTISRDNAKNTVYLQMNSLKPEDTAVYYCAAEGHTAFLVYRVSPLQYDYWGQGTQVTVSS | low polyreactivity
20 | QVQLVESGGGLVQAGGSLRLSCAASGRIFGWYAMGWYRQAPGKERELVAAISGRGGSTFYADSVKGRFTISRDNEKNTVYLQMNSLKPEDTAVYYCNAYSWYGYDYWGQGTQVTVSS | high polyreactivity
21 | QVQLVESGGGLVQAGGSLRLSCAASGRIFGWYAMGWYRQAPGKERELVAAISNDGSTNYADSVKGRFTISRDNAKNTVYLQMNSLKPEDTAVYYCAARFYRSSYGWYGYWGQGTQVTVSS | high polyreactivity
22 | QVQLVESGGGLVQAGGSLRLSCAASGRIFGWYAMGWYRQAPGNEREFVAAITVTGGSTYYADSVKGRCTISRDNAKNTVYLQMNSLKPEDTAVYYCAADRWYTRTGFDYWGQGTQVTVSS | low polyreactivity

Row | Sequence | polyreactivity (PSR sort gate)
23 | QVQLVESGGGLVQAGGSLRLSCAASGRIFGWYAMGWYRQAPGNERELVAAINRGGSTNYADSVKGRFTISRDNAKNTVYLQMNSLKPEDTAVYYCAVRGVHYTAVTNIKYGYGYWGQGTQVTVSS | high polyreactivity
24 | QVQLVESGGGLVQAGGSLRLSCAASGRIFGYNAMGWYRQAPGKERELVAAINSDGSKNYADSVKGRFTISRDNAKNTVYLQMNSLKPEDTAVYYCNKELYPVGDYEYWGQGTQVTVSS | low polyreactivity
25 | QVQLVESGGGLVQAGGSLRLSCAASGRIFGYNAMGWYRQAPGKERELVAAISDDGSTNYADSVKGRFTISRDNAKNTVYLQMNSLKPEDTAVYYCNADITFYTWGWYYIRYEYWGQGTQVTVSS | low polyreactivity
26 | QVQLVESGGGLVQAGGSLRLSCAASGRIFGYNAMGWYRQAPGKERELVAAISGSGGSTYYADSVKGRFTISRDNAKNTVYLQMNSLKPEDTAVYYCATRHGRYPYTLDYWGQGTQVTVSS | low polyreactivity
27 | QVQLVESGGGLVQAGGSLRLSCAASGRIFGYNAMGWYRQAPGKERELVAVITYSGGSTYYADSVKGRFTISRDNAKNTVYLQMNSMIPEDTAVYYCAADYQPYSYFWQGGTRDMDYWGQGTQVTVSS | low polyreactivity
28 | QVQLVESGGGLVQAGGSLRLSCAASGRIFGYNAMVWYRQAPGKERELVAAISYSGGSTYYADSVKGRFTISRDNAKNTVYLQMNSLKPEDTAVYYCATRPGYWRYEYWGQGTQVTVSS | high polyreactivity
29 | QVQLVESGGGLVQAGGSLRLSCAASGRIFGYNTMGWYRQAPGKERELVARISYDVDSTYYADSVKGRFTISRDNAKNTVYLQMNSLKPEDTAVYYCNARRSNLGSYIEYFGFDYWGQGTQVTVSS | low polyreactivity
30 | QVQLVESGGGLVQAGGSLRLSCAASGRIFGYNVMGWYRQAPGKERELVAAISYGGGRTTYADSVKGRFTISRDNAKNTVYLQMNSLKPEDTAVYYCNAGGQHVTLDNGDYWGQGTQVTVSS | high polyreactivity
31 | QVQLVESGGGLVQAGGSLRLSCAASGRIFGYTMGWYRPAPGKERELVAAISKSGGSTYYADSVKGRFTISRDNAKNTVYLQMNSLKPEDTAVYYCNKPQRILYDYWGQGTQVTVSS | high polyreactivity
32 | QVQLVESGGGLVQAGGSLRLSCAASGRIFGYYAIGWYRQAPGKERELVAAITINGGRTYYADSVKGRFTISRDNAKNTVYLQMNSLKPEDTAVYYCTATSRYNRLGYWGQGTQVTVSS | high polyreactivity
33 | QVQLVESGGGLVQAGGSLRLSCAASGRIFGYYAMGWYRQAPGKERELVAAINSGGSTNYADSVKGRFTISRDNAKNTVYLQMNSLKPEDTAVYYCAAGWRYRYFRSRNFYPYYYWGQGTQVTVSS | high polyreactivity
34 | QVQLVESGGGLVQAGGSLRLSCAASGRIFGYYAMGWYRQAPGKERELVAAINWRGGNTNYADSVKGRFTISRDNAKNTVYLQMNSLKPEDTSVYYCNAQVLVRPIQGEYGYWGQGTQVTVSS | low polyreactivity
35 | QVQLVESGGGLVQAGGSLRLSCAASGRIFGYYAMGWYRQAPGKERELVAAIRYSSGRTYYADSVKGRFTISRDNAKNNVYLQMNSLKPEDTAVYYCNAGYLFLRSYPHDYWGQGTQVTVSS | high polyreactivity
36 | QVQLVESGGGLVQAGGSLRLSCAASGRIFGYYAMGWYRQAPGKERELVAAIRYSSGRTYYADSVKGRFTISRDNAKNTVYLQMNSLKPEDTAVYYCNAYSSTYFYNYDYWGQGTQVTVSS | high polyreactivity
37 | QVQLVESGGGLVQAGGSLRLSCAASGRIFGYYAMGWYRQAPGKERELVAAISQGGGSTYADSVKGRFTISRDNAKNTVYLQMNSLKPEDTAVYYCAKRRRTGYGYWGQGTQVTVSS | high polyreactivity
38 | QVQLVESGGGLVQAGGSLRLSCAASGRIFGYYAMGWYRQAPGKERELVAASTSSDASTYYADSVKGRFTISRDNAKNTDYLQMNSLKPEDTAVYYCNADYPTWSYYLSGYYGYWGQGTQVTVSS | low polyreactivity
39 | QVQLVESGGGLVQAGGSLRLSCAASGRIFGYYAMGWYRQAPGKERELVARITKTVGGTYYADSVKGRFTISRDNAKNTVYLQMNSLKPEDTAVYYCAARVWTGNGRSKGAYDYWGQGTQVTVSS | high polyreactivity
40 | QVQLVESGGGLVQAGGSLRLSCAASGRIFGYYAMGWYRQAPGKERELVATINSVGSTNYADSVKGRFTISRDNAKNTVYLQMNSLKPEDTAVYYCATDSAYTFFTYRLWRHGYWGQGTQVTVSS | low polyreactivity
41 | QVQLVESGGGLVQAGGSLRLSCAASGRIFGYYAMGWYRQAPGTERELVASIRRGTRTNYADSVKGRFTISRDNAKNTVYLQMNSLKPEDTAVYYCAATRFQFTTTPWYDYWGQGTQVTVSS | high polyreactivity
42 | QVQLVESGGGLVQAGGSLRLSCAASGRIFGYYTMGWYRQAPGKERELVAAINGRGTSTYYADSVKGRFTISRDNAKNTVYLQMNSLKPEDTAVYYCAAGGWGPTRAYDYWGQGTQVTVSS | high polyreactivity
43 | QVQLVESGGGLVQAGGSLRLSCAASGRIFHKYDMGWYRQAPGKERELVAAITTSGGSTYYADSVKGRFTISRDNAKNTVYLQMNSLKPEDTAVYYCADSWSRRERGFDYWGQGTQVTVSS | high polyreactivity
